Test results reported in PMC6468047, “Cannabinoid CB1 and CB2 Receptor-Mediated Arrestin Translocation: Species, Subtype, and Agonist-Dependence” (Frontiers in Pharmacology, 2019).
Read-outs that look alike come from different tables or passages of the source.

What was measured:
CB2 (hCB2) [1] = target: T1, CB2 (hCB2) (Homo sapiens, UniProt P34972); test: BRET human β-arrestin-2 plasma membrane translocation; format: cell-based; settings: read-out: CB2 / logEC50 ± SEM (converted)
T1 construct: gene CNR2; 3HA-hCB2 in pEF4a: N-terminal 3xHA tag, untagged C-terminus; transient in HEK-293 with Rluc8-arrestin and mem-linker-Citrine reporters
T1 sequence (P34972 whole entry): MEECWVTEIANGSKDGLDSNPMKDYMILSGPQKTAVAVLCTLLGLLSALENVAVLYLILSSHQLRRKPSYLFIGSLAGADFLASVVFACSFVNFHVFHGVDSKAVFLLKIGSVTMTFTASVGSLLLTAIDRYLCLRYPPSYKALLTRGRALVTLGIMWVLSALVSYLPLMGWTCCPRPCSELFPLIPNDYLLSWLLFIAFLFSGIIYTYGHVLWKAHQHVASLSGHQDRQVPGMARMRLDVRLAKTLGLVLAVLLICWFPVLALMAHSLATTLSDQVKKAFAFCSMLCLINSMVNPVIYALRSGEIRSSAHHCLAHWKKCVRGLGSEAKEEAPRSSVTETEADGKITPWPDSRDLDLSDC

CB2 (hCB2) [2] = target: T1, CB2 (hCB2); test: BRET human β-arrestin-1 plasma membrane translocation; format: cell-based; settings: 10 µM; HEK-293, 37 °C, single concentration 10 μM, no GRK2 co-expression
Description: BRET human β-arrestin-1 plasma membrane translocation on CB2 (hCB2)

[3] = target: human cannabinoid receptor 1 (pplss-3HA-hCB1) (human) (UniProt P21554)
Chain of human cannabinoid receptor 1 (pplss-3HA-hCB1) (human) (P21554 whole entry): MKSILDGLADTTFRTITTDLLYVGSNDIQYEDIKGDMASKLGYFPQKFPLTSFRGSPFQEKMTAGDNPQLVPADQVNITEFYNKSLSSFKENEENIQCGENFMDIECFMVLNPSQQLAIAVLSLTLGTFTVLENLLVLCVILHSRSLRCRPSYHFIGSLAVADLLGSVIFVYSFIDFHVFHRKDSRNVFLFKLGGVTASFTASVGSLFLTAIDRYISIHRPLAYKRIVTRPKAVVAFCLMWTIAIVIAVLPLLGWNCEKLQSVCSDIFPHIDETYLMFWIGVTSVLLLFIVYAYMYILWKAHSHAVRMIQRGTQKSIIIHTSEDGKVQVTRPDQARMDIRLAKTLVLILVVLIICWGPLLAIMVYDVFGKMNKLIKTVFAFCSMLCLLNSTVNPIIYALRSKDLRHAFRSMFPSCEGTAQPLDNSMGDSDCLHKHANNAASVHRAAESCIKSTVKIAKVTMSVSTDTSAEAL

[4] = target: human cannabinoid receptor 2 (3HA-hCB2) (human) (UniProt P34972)
Chain of human cannabinoid receptor 2 (3HA-hCB2) (human) (P34972 whole entry): as the sequence (P34972 whole entry) above

[5] = target: human vasopressin receptor 2 (3HA-hV2R) (human) (UniProt P30518)
[6] = target: human D2 dopamine receptor (3HA-hD2R) (human) (UniProt P14416)
Chain of human D2 dopamine receptor (3HA-hD2R) (human) (P14416 whole entry): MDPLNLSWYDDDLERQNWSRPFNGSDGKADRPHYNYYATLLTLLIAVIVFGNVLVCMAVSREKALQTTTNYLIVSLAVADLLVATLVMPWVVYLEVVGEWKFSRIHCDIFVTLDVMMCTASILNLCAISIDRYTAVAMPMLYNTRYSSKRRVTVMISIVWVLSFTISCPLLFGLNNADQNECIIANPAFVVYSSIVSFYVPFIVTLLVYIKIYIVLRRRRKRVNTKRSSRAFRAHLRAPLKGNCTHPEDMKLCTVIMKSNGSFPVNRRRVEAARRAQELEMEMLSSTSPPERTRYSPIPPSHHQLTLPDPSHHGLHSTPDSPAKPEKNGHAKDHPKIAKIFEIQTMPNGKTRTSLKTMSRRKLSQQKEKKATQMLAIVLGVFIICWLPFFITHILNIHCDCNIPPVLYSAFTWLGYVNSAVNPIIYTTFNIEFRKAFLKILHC

[7] = target: human vasopressin receptor 2 (3HA-hV2R) (human) (UniProt P30518); remark: listed apart in the source
[8] = target: human D2 dopamine receptor (3HA-hD2R) (human) (UniProt P14416); remark: listed apart in the source
[9] = target: human cannabinoid receptor 1 (pplss-3HA-hCB1) (human) (UniProt P21554); remark: listed apart in the source
[10] = target: human cannabinoid receptor 2 (3HA-hCB2) (human) (UniProt P34972); remark: listed apart in the source
[11] = target: human vasopressin receptor 2 (3HA-hV2R) (human) (UniProt P30518); remark: listed apart in the source
[12] = target: human D2 dopamine receptor (3HA-hD2R) (human) (UniProt P14416); remark: listed apart in the source
[13] = target: human cannabinoid receptor 1 (pplss-3HA-hCB1) (human) (UniProt P21554); remark: listed apart in the source
[14] = target: human cannabinoid receptor 2 (3HA-hCB2) (human) (UniProt P34972); remark: listed apart in the source
[15] = target: human cannabinoid receptor 1 (pplss-3HA-hCB1) (human) (UniProt P21554); remark: listed apart in the source
[16] = target: human cannabinoid receptor 2 (3HA-hCB2) (human) (UniProt P34972); remark: listed apart in the source
[17] = target: human vasopressin receptor 2 (3HA-hV2R) (human) (UniProt P30518); remark: listed apart in the source

Chain of bovine β-arrestin-1 (Rluc8-bβ-arrestin-1-Sp1) (P17870 whole entry): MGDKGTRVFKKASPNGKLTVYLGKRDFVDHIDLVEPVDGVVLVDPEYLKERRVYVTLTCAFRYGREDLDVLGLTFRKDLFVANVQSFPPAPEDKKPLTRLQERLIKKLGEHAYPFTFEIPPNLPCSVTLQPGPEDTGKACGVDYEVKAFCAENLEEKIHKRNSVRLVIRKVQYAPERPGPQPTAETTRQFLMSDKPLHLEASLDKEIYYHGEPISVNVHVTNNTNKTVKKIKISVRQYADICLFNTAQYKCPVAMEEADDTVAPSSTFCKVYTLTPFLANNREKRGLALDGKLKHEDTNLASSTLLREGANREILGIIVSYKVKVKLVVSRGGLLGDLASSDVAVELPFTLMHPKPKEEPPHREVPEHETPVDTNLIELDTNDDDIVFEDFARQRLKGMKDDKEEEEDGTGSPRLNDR
Chain of human β-arrestin-2 (Rluc8-hβ-arrestin-2-Sp1) (P32121 whole entry): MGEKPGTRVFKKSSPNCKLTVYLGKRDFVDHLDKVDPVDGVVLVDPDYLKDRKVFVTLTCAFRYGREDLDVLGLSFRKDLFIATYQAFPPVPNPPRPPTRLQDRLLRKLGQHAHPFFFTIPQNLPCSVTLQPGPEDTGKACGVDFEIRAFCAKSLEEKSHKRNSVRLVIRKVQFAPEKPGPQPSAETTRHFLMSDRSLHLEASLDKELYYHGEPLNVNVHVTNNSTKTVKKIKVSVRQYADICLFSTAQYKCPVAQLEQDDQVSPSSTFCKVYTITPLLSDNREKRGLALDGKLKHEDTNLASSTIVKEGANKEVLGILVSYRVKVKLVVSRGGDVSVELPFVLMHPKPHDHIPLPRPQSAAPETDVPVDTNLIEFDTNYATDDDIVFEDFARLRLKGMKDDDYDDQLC
Chain of human β-arrestin-1 (Rluc8-hβ-arrestin-1-Sp1) (P49407 whole entry): as the sequence (P17870 whole entry) above, with E35D, H368N, R414Q, D417N counted along it
Chain of bovine β-arrestin-2 (Rluc8-bβ-arrestin-2-Sp1) (P32120 whole entry): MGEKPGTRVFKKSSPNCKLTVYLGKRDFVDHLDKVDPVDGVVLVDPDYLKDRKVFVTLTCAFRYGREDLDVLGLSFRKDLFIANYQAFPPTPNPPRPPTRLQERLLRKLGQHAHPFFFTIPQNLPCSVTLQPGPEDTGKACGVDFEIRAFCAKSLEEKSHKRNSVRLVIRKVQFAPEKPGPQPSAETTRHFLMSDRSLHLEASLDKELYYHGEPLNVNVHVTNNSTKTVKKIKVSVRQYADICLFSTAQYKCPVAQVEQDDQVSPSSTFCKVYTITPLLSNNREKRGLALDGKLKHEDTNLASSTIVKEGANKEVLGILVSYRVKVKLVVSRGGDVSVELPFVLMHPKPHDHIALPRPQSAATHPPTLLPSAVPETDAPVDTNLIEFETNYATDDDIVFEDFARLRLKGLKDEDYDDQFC

## CCCCC/C=C\C/C=C\C/C=C\C/C=C\CCCC(=O)OC(CO)CO [2-AG]
CB2 (hCB2) [1]
  EC50: 1.86 µM

## CCCCCc1cc(O)c2c(c1)OC(C)(C)[C@@H]1CCC(C)=C[C@@H]21 [THC]
CB2 (hCB2) [2]
  CB2 / Response ± SEM (ΔBRET.sec): 14.4 ± 2.8 ΔBRET.sec

## bovine β-arrestin-1 (Rluc8-bβ-arrestin-1-Sp1) (from UniProt P17870 1-418) (natural protein)
[3]
  Response, arrestin translocation to the plasma membrane (BRET, AUC of 25 min); 1 μM CP55,940 (significantly different from vehicle): 20.8 ΔBRET.sec
  Response, arrestin translocation to the plasma membrane (BRET, AUC of 25 min); 1 μM CP55,940; GRK2 co-expressed (significantly different from vehicle): 44.4 ΔBRET.sec
  Response, arrestin translocation to the plasma membrane (BRET, AUC of 25 min); 10 μM AEA (no significant response): 6.9 ΔBRET.sec
  Response, arrestin translocation to the plasma membrane (BRET, AUC of 25 min); 10 μM BAY (no significant response): 0.7 ΔBRET.sec
  Response, arrestin translocation to the plasma membrane (BRET, AUC of 25 min); 10 μM THC (no significant response): 6.5 ΔBRET.sec
  Response, arrestin translocation to the plasma membrane (BRET, AUC of 25 min); 10 μM WIN55,212-2 (significantly different from vehicle): 48.5 ΔBRET.sec
  Response, arrestin translocation to the plasma membrane (BRET, AUC of 25 min); 31.6 μM 2-AG (significantly different from vehicle): 33.7 ΔBRET.sec
  Response, arrestin translocation to the plasma membrane (BRET, AUC of 25 min); 31.6 μM 2-AG; GRK2 co-expressed (significantly different from vehicle): 49.1 ΔBRET.sec
[4]
  Response, arrestin translocation to the plasma membrane (BRET, AUC of 25 min); 1 μM CP55,940 (significantly different from vehicle): 21.5 ΔBRET.sec
  Response, arrestin translocation to the plasma membrane (BRET, AUC of 25 min); 1 μM CP55,940; GRK2 co-expressed (significantly different from vehicle): 29 ΔBRET.sec
  Response, arrestin translocation to the plasma membrane (BRET, AUC of 25 min); 10 μM JWH-015 (not significantly different from vehicle): 14.2 ΔBRET.sec
  Response, arrestin translocation to the plasma membrane (BRET, AUC of 25 min); 10 μM JWH-133 (not significantly different from vehicle): 7.4 ΔBRET.sec
  Response, arrestin translocation to the plasma membrane (BRET, AUC of 25 min); 10 μM THC (not significantly different from vehicle): 10.8 ΔBRET.sec
  Response, arrestin translocation to the plasma membrane (BRET, AUC of 25 min); 10 μM WIN55,212-2 (significantly different from vehicle): 22.2 ΔBRET.sec
  Response, arrestin translocation to the plasma membrane (BRET, AUC of 25 min); 31.6 μM 2-AG (not significantly different from vehicle): 14.2 ΔBRET.sec
  Response, arrestin translocation to the plasma membrane (BRET, AUC of 25 min); 31.6 μM 2-AG; GRK2 co-expressed (significantly different from vehicle): 17.5 ΔBRET.sec
[5]
  Emax, arrestin translocation to the plasma membrane (BRET, AUC of 25 min); agonist AVP: 177 ΔBRET.sec
[6]
  Response, arrestin translocation to the plasma membrane (BRET, AUC of 25 min); 10 μM dopamine: 23.4 ΔBRET.sec
  Response, arrestin translocation to the plasma membrane (BRET, AUC of 25 min); 10 μM dopamine; GRK2 co-expressed: 95 ΔBRET.sec

## bovine β-arrestin-2 (Rluc8-bβ-arrestin-2-Sp1) (from UniProt P32120 1-420) (natural protein)
[7]
  Emax, arrestin translocation to the plasma membrane (BRET, AUC of 25 min); agonist AVP: 194 ΔBRET.sec
[8]
  Emax, arrestin translocation to the plasma membrane (BRET, AUC of 25 min); agonist dopamine: 40.6 ΔBRET.sec
  Emax, arrestin translocation to the plasma membrane (BRET, AUC of 25 min); agonist dopamine; GRK2 co-expressed: 129 ΔBRET.sec
[9]
  Emax, arrestin translocation to the plasma membrane (BRET, AUC of 25 min); agonist 2-AG: 116 ΔBRET.sec
  Emax, arrestin translocation to the plasma membrane (BRET, AUC of 25 min); agonist 2-AG; GRK2 co-expressed: 91.7 ΔBRET.sec
  Emax, arrestin translocation to the plasma membrane (BRET, AUC of 25 min); agonist AEA: 32.1 ΔBRET.sec
  Emax, arrestin translocation to the plasma membrane (BRET, AUC of 25 min); agonist CP55,940: 35.2 ΔBRET.sec
  Emax, arrestin translocation to the plasma membrane (BRET, AUC of 25 min); agonist CP55,940; GRK2 co-expressed: 58.9 ΔBRET.sec
  Emax, arrestin translocation to the plasma membrane (BRET, AUC of 25 min); agonist WIN55,212-2: 72 ΔBRET.sec
  efficacy at 10 μM BAY (NA, not active; no curve could be fitted), arrestin translocation to the plasma membrane (BRET, AUC of 25 min): 2.4 ΔBRET.sec
  efficacy at 10 μM THC (NA, not active; no curve could be fitted), arrestin translocation to the plasma membrane (BRET, AUC of 25 min): 0.54 ΔBRET.sec
[10]
  Emax, arrestin translocation to the plasma membrane (BRET, AUC of 25 min); agonist 2-AG: 45 ΔBRET.sec
  Emax, arrestin translocation to the plasma membrane (BRET, AUC of 25 min); agonist 2-AG; GRK2 co-expressed: 75.7 ΔBRET.sec
  Emax, arrestin translocation to the plasma membrane (BRET, AUC of 25 min); agonist CP55,940: 45.4 ΔBRET.sec
  Emax, arrestin translocation to the plasma membrane (BRET, AUC of 25 min); agonist CP55,940; GRK2 co-expressed: 70.9 ΔBRET.sec
  Emax, arrestin translocation to the plasma membrane (BRET, AUC of 25 min); agonist JWH-015: 26.7 ΔBRET.sec
  Emax, arrestin translocation to the plasma membrane (BRET, AUC of 25 min); agonist JWH-133: 49.7 ΔBRET.sec
  Emax, arrestin translocation to the plasma membrane (BRET, AUC of 25 min); agonist WIN55,212-2: 25.6 ΔBRET.sec
  efficacy at 10 μM THC (NA, not active; no curve could be fitted), arrestin translocation to the plasma membrane (BRET, AUC of 25 min): 2 ΔBRET.sec

## human β-arrestin-1 (Rluc8-hβ-arrestin-1-Sp1) (from UniProt P49407 1-418) (natural protein)
[11]
  Emax, arrestin translocation to the plasma membrane (BRET, AUC of 25 min); agonist AVP: 246 ΔBRET.sec
[12]
  Response, arrestin translocation to the plasma membrane (BRET, AUC of 25 min); 10 μM dopamine: 17.9 ΔBRET.sec
  Response, arrestin translocation to the plasma membrane (BRET, AUC of 25 min); 10 μM dopamine; GRK2 co-expressed: 86.1 ΔBRET.sec
[13]
  Response, arrestin translocation to the plasma membrane (BRET, AUC of 25 min); 1 μM CP55,940 (not significantly different from vehicle): 17.6 ΔBRET.sec
  Response, arrestin translocation to the plasma membrane (BRET, AUC of 25 min); 1 μM CP55,940; GRK2 co-expressed (significantly different from vehicle): 28.1 ΔBRET.sec
  Response, arrestin translocation to the plasma membrane (BRET, AUC of 25 min); 10 μM AEA (not significantly different from vehicle): 10 ΔBRET.sec
  Response, arrestin translocation to the plasma membrane (BRET, AUC of 25 min); 10 μM BAY (not significantly different from vehicle): 1.4 ΔBRET.sec
  Response, arrestin translocation to the plasma membrane (BRET, AUC of 25 min); 10 μM THC (not significantly different from vehicle): 16.2 ΔBRET.sec
  Response, arrestin translocation to the plasma membrane (BRET, AUC of 25 min); 10 μM WIN55,212-2 (significantly different from vehicle): 36.2 ΔBRET.sec
  Response, arrestin translocation to the plasma membrane (BRET, AUC of 25 min); 31.6 μM 2-AG (significantly different from vehicle): 51.8 ΔBRET.sec
  Response, arrestin translocation to the plasma membrane (BRET, AUC of 25 min); 31.6 μM 2-AG; GRK2 co-expressed (significantly different from vehicle): 53 ΔBRET.sec
[14]
  Response, arrestin translocation to the plasma membrane (BRET, AUC of 25 min); 1 μM CP55,940 (significantly different from vehicle): 20.5 ΔBRET.sec
  Response, arrestin translocation to the plasma membrane (BRET, AUC of 25 min); 1 μM CP55,940; GRK2 co-expressed (significantly different from vehicle): 22.7 ΔBRET.sec
  Response, arrestin translocation to the plasma membrane (BRET, AUC of 25 min); 10 μM JWH-015 (significantly different from vehicle): 31.2 ΔBRET.sec
  Response, arrestin translocation to the plasma membrane (BRET, AUC of 25 min); 10 μM JWH-133 (not significantly different from vehicle): 4.9 ΔBRET.sec
  Response, arrestin translocation to the plasma membrane (BRET, AUC of 25 min); 10 μM THC (significantly different from vehicle): 14.4 ΔBRET.sec
  Response, arrestin translocation to the plasma membrane (BRET, AUC of 25 min); 10 μM WIN55,212-2 (not significantly different from vehicle): 3.2 ΔBRET.sec
  Response, arrestin translocation to the plasma membrane (BRET, AUC of 25 min); 31.6 μM 2-AG (significantly different from vehicle): 14.7 ΔBRET.sec
  Response, arrestin translocation to the plasma membrane (BRET, AUC of 25 min); 31.6 μM 2-AG; GRK2 co-expressed (significantly different from vehicle): 17.2 ΔBRET.sec

## human β-arrestin-2 (Rluc8-hβ-arrestin-2-Sp1) (from UniProt P32121 1-409) (natural protein)
[15]
  Emax, arrestin translocation to the plasma membrane (BRET, AUC of 25 min); agonist 2-AG: 236 ΔBRET.sec
  Emax, arrestin translocation to the plasma membrane (BRET, AUC of 25 min); agonist 2-AG; GRK2 co-expressed: 150 ΔBRET.sec
  Emax, arrestin translocation to the plasma membrane (BRET, AUC of 25 min); agonist AEA: 47.9 ΔBRET.sec
  Emax, arrestin translocation to the plasma membrane (BRET, AUC of 25 min); agonist CP55,940: 83.7 ΔBRET.sec
  Emax, arrestin translocation to the plasma membrane (BRET, AUC of 25 min); agonist CP55,940; GRK2 co-expressed: 120 ΔBRET.sec
  Emax, arrestin translocation to the plasma membrane (BRET, AUC of 25 min); agonist WIN55,212-2: 164 ΔBRET.sec
  efficacy at 10 μM BAY (NA, not active; no curve could be fitted), arrestin translocation to the plasma membrane (BRET, AUC of 25 min): 15.3 ΔBRET.sec
  efficacy at 10 μM THC (NA, not active; no curve could be fitted), arrestin translocation to the plasma membrane (BRET, AUC of 25 min): 5.9 ΔBRET.sec
[16]
  Emax, arrestin translocation to the plasma membrane (BRET, AUC of 25 min); agonist 2-AG: 31.3 ΔBRET.sec
  Emax, arrestin translocation to the plasma membrane (BRET, AUC of 25 min); agonist 2-AG; GRK2 co-expressed: 68.7 ΔBRET.sec
  Emax, arrestin translocation to the plasma membrane (BRET, AUC of 25 min); agonist CP55,940: 37.4 ΔBRET.sec
  Emax, arrestin translocation to the plasma membrane (BRET, AUC of 25 min); agonist CP55,940; GRK2 co-expressed: 70.4 ΔBRET.sec
  Emax, arrestin translocation to the plasma membrane (BRET, AUC of 25 min); agonist JWH-015: 34 ΔBRET.sec
  Emax, arrestin translocation to the plasma membrane (BRET, AUC of 25 min); agonist JWH-133: 37.8 ΔBRET.sec
  Emax, arrestin translocation to the plasma membrane (BRET, AUC of 25 min); agonist WIN55,212-2: 24.4 ΔBRET.sec
  efficacy at 10 μM THC (NA, not active; no curve could be fitted), arrestin translocation to the plasma membrane (BRET, AUC of 25 min): -3.8 ΔBRET.sec
[17]
  Emax, arrestin translocation to the plasma membrane (BRET, AUC of 25 min); agonist AVP: 306 ΔBRET.sec
